Measurements taken from PMC6834283, “Duplicate divergence of two bacterial small heat shock proteins reduces the demand for Hsp70 in refolding of substrates” (PLoS Genetics, 2019).

B1: IbpA from Escherichia coli (natural protein, E. coli, UniProt P0C054 1-137, looked up)
chain: MRNFDLSPLYRSAIGFDRLFNHLENNQSQSNGGYPPYNVELVDENHYRIAIAVAGFAESELEITAQDNLLVVKGAHADEQKERTYLYQGIAERNFERKFQLAENIHVRGANLVNGLLYIDLERVIPEAKKPRRIEIN
notes: small heat shock protein IbpA, E. coli; Forms large undefined oligomers; also called IbpAEc; source: purified as described previously [23]
B2: IbpABEc (IbpAEc and IbpBEc used together, two-sHsp system of E. coli) (complex)
chain 1: B1 chain
chain 2: MRNFDLSPLMRQWIGFDKLANALQNAGESQSFPPYNIEKSDDNHYRITLALAGFRQEDLEIQLEGTRLSVKGTPEQPKEEKKWLHQGLMNQPFSLSFTLAENMEVSGATFVNGLLHIDLIRNEPEPIAAQRIAISERPALNS
notes: small heat shock protein IbpA, E. coli; as m1; small heat shock protein IbpB, E. coli; as m2; source: the two purified proteins (as described previously [23]) mixed at about 1:2

Legend:
[1] = target: T1, firefly luciferase, thermally denatured (firefly, UniProt P08659 1-550 = luciferase); experiment: co-sedimentation; sHsp-substrate assemblies isolated on a glycerol gradient, incubated 45 min at room temperature with buffer or with limiting or saturating DnaK/DnaJ/GrpE, then a second 10-60% glycerol gradient; pooled top, middle and bottom fractions by Western blot with IbpA antibodies; conditions: both partners purified
T1 construct: firefly luciferase (Promega), used as the aggregating substrate; Denatured at 44°C for 10 min in the presence of the sHsps; The partner is the unfolded, aggregating protein, not the native enzyme; source: bought: Promega

[2] = target: T2, C-His-tagged luciferase, aggregated on the BLI sensor (firefly, UniProt P08659 1-550 = luciferase); experiment: BLI; aggregated C-His-tagged luciferase immobilised on Ni-NTA sensors (BLItz); 5 μM sHsps (1.66 μM IbpAEc with 3.34 μM IbpBEc for IbpABEc) heat-activated at 44°C for 5 min; room temperature, buffer D (50 mM Tris-HCl pH 7.5, 150 mM KCl, 20 mM Mg acetate, 2 mM DTT); 10 min binding, 1 h dissociation in buffer; conditions: both partners purified
T2 construct: firefly luciferase with a C-terminal His tag, used only in the BLI experiments; An anchoring layer was immobilised in 6 M urea on Ni-NTA sensors; A top aggregate layer was then formed at 44°C for 10 min; also called aggregated luciferase; immobilized luciferase aggregates; source: purified (Ni-NTA agarose); not shown: His tag, C-terminal, kept
T2 sequence (P08659 whole entry): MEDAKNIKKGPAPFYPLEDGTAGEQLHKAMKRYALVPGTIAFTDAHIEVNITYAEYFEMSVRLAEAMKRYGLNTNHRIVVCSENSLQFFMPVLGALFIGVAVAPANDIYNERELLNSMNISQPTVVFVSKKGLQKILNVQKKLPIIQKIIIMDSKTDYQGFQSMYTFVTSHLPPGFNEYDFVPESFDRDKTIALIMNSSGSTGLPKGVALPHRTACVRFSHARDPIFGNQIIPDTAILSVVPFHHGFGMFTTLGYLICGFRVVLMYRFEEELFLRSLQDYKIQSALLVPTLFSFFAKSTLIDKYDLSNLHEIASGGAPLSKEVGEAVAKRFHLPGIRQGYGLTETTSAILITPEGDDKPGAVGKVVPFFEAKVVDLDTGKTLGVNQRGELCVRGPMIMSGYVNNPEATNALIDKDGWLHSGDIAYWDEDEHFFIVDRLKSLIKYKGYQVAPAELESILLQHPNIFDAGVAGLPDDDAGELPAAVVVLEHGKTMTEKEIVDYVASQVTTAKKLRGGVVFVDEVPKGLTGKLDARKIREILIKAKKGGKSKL

T1 sequence (P08659 whole entry): as above

Binder	binding result [1]	binding result [2]
B1	binds	binds
B2	binds	binds
